Data published in the supplement of paper PMC10065799, “High-throughput profiling of sequence recognition by tyrosine kinases and SH2 domains using bacterial peptide display” (eLife, 2023).

How the values were obtained:
Fyn = Fyn (UniProt P06241); experiment: phosphorylation enrichment, bacterial display (enrichment ratio); higher = better substrate or ligand; peptides without Tyr show the background
Fer (mouse) = experiment: as above
c-Src = experiment: as above
Jak2 = Jak2 (UniProt O60674); experiment: as above
AncSZ = experiment: as above
EPHB1 = EPHB1 (UniProt P54762); experiment: as above
FGFR1 = FGFR1 (UniProt P11362); experiment: as above
EPHB2 = EPHB2 (UniProt P29323); experiment: as above
Fes = Fes (UniProt P07332); experiment: as above
FGFR3 = FGFR3 (UniProt P22607); experiment: as above
Hck = Hck (UniProt P08631); experiment: as above
MERTK = MERTK (UniProt Q12866); experiment: as above
c-Abl (mouse) = experiment: as above
SHP2-C SH2 = experiment: SH2 binding enrichment of the phosphorylated peptide, bacterial display (enrichment ratio); higher = better substrate or ligand; peptides without Tyr show the background
Grb2 SH2 = Grb2 SH2 (UniProt P62993); experiment: as above
c-Src SH2 = experiment: as above
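For SH2 binding enrichment of the phosphorylated peptide, bacterial display in this document: peptide library displayed on the E. coli surface as eCPX fusions, selected cells deep-sequenced, score is each peptide's frequency after selection divided by its frequency in the input.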
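For phosphorylation enrichment, bacterial display in this document: 11-residue human phosphosite peptides and single-mutation variants displayed on the E. coli surface, counted by deep sequencing, each peptide's frequency after selection divided by its frequency in the unselected input library; frequency after pTyr selection over input frequency; kinase dosed for 20-30% of maximal phosphorylation in three min.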

Sequence of Fes (P07332 whole entry, looked up): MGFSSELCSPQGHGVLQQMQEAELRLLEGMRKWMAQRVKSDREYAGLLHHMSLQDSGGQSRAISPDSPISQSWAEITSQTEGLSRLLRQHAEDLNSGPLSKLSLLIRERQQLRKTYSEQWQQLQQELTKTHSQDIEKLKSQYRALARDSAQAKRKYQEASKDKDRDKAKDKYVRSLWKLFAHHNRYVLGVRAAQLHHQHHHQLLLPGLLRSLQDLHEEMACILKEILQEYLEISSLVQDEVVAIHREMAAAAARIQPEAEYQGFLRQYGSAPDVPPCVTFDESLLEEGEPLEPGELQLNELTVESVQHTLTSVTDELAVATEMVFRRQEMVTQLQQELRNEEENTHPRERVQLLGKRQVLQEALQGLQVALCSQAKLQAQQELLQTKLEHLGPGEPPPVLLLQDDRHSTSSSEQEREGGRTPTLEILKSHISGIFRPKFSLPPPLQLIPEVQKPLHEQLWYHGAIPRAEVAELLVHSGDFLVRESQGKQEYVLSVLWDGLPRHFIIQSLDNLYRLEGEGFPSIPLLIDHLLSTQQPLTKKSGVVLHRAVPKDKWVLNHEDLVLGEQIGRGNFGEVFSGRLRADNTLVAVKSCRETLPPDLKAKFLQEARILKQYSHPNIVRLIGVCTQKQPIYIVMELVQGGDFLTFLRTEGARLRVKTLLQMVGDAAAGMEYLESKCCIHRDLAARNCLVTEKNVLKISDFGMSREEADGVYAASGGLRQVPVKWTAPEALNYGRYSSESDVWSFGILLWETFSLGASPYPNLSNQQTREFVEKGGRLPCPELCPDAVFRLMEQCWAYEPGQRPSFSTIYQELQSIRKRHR
Sequence of FGFR3 (P22607 whole entry, looked up): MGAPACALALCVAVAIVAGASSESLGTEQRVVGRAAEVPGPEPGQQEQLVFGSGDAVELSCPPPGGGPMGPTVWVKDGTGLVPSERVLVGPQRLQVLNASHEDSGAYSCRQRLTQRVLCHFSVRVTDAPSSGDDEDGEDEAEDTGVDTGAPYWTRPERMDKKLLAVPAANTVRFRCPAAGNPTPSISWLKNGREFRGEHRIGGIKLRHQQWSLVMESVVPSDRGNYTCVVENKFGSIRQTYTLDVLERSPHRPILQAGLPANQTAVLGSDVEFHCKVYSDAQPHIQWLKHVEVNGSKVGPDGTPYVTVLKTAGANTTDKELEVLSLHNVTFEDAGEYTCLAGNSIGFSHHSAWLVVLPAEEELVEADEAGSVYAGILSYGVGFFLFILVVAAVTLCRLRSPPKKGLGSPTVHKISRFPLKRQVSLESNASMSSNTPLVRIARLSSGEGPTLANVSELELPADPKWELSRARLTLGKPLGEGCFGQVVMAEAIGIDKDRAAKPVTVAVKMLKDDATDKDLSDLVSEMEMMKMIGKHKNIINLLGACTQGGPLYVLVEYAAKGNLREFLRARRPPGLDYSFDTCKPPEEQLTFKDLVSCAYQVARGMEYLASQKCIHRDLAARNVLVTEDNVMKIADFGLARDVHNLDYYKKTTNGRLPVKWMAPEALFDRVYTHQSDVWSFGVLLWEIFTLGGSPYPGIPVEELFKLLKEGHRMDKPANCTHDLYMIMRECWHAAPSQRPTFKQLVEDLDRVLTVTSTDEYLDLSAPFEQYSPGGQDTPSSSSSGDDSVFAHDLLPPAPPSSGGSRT
Sequence of MERTK (Q12866 whole entry, looked up): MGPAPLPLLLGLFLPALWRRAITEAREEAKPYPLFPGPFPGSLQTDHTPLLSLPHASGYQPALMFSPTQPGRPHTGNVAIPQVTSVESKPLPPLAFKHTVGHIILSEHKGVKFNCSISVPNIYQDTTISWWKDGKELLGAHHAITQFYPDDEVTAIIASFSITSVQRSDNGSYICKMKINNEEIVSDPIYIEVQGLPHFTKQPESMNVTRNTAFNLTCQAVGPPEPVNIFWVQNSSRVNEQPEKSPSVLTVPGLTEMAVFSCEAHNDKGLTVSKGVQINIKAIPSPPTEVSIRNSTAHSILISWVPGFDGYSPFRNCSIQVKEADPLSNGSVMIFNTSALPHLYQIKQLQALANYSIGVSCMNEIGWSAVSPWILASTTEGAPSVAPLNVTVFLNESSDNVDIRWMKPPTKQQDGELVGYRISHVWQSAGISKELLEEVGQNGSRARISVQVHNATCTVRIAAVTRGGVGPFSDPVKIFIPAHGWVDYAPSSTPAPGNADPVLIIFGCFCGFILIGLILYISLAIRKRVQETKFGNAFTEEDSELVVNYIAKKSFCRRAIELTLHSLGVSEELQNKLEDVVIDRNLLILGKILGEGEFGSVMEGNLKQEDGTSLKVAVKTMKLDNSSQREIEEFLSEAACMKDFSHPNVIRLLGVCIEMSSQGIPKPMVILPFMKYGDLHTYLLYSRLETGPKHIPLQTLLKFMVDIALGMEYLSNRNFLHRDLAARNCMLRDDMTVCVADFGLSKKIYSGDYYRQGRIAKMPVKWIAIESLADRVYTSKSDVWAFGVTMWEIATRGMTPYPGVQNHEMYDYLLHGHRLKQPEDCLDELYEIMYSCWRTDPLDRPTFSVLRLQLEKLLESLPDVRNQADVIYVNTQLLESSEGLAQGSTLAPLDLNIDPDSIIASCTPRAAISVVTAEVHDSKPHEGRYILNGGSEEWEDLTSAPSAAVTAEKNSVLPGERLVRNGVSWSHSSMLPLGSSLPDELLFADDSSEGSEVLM
Sequence of Grb2 SH2 (P62993 whole entry, looked up): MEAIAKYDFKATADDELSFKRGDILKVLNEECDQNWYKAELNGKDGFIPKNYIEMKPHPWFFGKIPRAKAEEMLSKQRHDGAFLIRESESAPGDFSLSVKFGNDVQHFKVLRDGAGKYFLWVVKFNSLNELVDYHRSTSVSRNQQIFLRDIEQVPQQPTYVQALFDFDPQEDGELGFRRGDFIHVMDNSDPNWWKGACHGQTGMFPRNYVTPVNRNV
Sequence of Jak2 (O60674 whole entry, looked up): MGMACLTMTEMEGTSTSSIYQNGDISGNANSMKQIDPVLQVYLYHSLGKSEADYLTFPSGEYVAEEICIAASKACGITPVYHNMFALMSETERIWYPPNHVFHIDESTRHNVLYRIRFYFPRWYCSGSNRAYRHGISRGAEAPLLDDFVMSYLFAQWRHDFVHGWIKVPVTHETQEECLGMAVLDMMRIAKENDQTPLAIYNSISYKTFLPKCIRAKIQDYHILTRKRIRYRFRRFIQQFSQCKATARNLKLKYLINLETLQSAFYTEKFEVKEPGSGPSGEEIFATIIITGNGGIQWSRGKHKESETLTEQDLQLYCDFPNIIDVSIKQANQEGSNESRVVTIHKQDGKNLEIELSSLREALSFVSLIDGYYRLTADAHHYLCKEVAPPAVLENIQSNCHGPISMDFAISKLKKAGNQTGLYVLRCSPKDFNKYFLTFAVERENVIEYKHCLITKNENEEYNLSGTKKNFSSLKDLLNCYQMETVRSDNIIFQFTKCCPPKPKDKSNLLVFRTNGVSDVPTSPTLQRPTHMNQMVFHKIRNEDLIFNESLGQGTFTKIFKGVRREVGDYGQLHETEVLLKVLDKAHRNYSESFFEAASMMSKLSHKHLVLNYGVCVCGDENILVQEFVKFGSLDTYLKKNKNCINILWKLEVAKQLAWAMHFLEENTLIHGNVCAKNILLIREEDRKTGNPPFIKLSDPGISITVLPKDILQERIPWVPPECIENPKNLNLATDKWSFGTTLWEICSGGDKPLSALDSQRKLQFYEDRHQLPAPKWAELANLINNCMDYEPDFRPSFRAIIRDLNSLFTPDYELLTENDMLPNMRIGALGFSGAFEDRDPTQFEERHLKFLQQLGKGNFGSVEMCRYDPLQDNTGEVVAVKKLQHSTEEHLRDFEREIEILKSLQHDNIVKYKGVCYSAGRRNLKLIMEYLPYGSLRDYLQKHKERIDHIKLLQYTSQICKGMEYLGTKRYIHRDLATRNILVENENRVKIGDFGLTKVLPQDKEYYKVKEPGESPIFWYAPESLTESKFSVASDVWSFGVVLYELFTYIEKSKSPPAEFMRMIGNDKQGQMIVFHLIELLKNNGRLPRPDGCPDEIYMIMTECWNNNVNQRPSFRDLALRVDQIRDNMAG
Sequence of EPHB2 (P29323 whole entry, looked up): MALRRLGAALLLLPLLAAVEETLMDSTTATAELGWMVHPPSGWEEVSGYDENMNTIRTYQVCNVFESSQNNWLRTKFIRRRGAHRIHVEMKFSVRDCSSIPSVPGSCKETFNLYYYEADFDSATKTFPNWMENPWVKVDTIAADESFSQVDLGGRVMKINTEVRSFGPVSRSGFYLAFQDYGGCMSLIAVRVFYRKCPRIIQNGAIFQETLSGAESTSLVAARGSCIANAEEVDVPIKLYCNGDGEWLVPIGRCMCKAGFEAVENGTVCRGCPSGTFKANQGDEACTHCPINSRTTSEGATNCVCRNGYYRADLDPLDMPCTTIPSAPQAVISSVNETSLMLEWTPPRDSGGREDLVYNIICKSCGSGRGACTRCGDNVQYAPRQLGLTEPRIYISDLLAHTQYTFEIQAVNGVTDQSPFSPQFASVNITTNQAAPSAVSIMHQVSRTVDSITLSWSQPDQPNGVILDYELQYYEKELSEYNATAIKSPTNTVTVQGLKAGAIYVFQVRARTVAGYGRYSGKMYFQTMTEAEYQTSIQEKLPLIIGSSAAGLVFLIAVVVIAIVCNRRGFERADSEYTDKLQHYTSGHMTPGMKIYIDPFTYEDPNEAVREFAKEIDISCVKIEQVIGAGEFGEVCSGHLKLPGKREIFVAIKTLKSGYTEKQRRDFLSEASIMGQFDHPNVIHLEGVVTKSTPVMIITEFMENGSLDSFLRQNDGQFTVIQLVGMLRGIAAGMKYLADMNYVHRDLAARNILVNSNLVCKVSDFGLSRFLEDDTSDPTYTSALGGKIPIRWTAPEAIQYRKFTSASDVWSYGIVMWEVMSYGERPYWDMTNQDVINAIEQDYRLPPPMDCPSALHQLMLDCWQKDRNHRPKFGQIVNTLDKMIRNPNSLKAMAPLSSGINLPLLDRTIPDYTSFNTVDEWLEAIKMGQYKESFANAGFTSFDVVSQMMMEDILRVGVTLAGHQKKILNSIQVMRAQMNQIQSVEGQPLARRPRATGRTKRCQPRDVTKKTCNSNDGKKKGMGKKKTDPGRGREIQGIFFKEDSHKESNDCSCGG

Row | Sequence | phosphorylation enrichment (Fyn) | phosphorylation enrichment (Fer (mouse)) | phosphorylation enrichment (c-Src) | phosphorylation enrichment (Jak2) | phosphorylation enrichment (AncSZ) | phosphorylation enrichment (EPHB1) | phosphorylation enrichment (FGFR1) | phosphorylation enrichment (EPHB2) | phosphorylation enrichment (Fes) | phosphorylation enrichment (FGFR3) | phosphorylation enrichment (Hck) | phosphorylation enrichment (MERTK) | phosphorylation enrichment (c-Abl (mouse)) | SH2 binding enrichment (SHP2-C SH2) | SH2 binding enrichment (Grb2 SH2) | SH2 binding enrichment (c-Src SH2)
1 | SENAFYLSPDI [COL6A3_Y2827] | 0.607 | 0.724 | 0.607 | 1.68 | 1.69 | 0.793 | 0.762 | 0.687 | 1.21 | 0.841 | 0.687 | 0.754 | 1.49 | 0.698 | 0.739 | 0.475
2 | SEPDLYYDPRG [PKP1_Y160_C161Y] | 5.41 | 1.65 | 4.93 | 3.35 | 2.91 | 14.3 | 10.8 | 13.6 | 1.16 | 8.64 | 8.75 | 7.05 | 3.09 | 0.679 | 0.864 | 0.524
3 | SFHSSYSEIKD [DCLRE1C_Y322] | 0.512 | 0.52 | 0.506 | 0.559 | 0.738 | 0.435 | 0.554 | 0.532 | 0.744 | 0.681 | 0.51 | 0.57 | 0.448 | 4.96 | 0.982 | 22.5
4 | SFKNKYGMVAQ [APOB_Y276_YF] | 0.353 | 0.335 | 0.375 | 0.43 | 0.42 | 0.302 | 0.335 | 0.354 | 0.574 | 0.39 | 0.354 | 0.341 | 0.465 | 0.543 | 0.934 | 0.455
5 | SFPHEYGSQEG [RBM10_Y48_R46H_YF] | 0.515 | 0.47 | 0.395 | 0.645 | 0.768 | 0.485 | 0.565 | 0.602 | 0.87 | 1.46 | 0.679 | 0.459 | 0.583 | 0.623 | 0.93 | 0.643
6 | SGGCSYGSGGG [KRT1_Y539_G537C] | 0.381 | 0.462 | 0.394 | 0.773 | 0.803 | 0.475 | 0.402 | 0.478 | 0.916 | 0.561 | 0.446 | 0.346 | 0.637 | 0.655 | 0.782 | 0.462
7 | SGIFQYNIAKF [FOXL2_Y83_I84N_YF] | 0.472 | 0.48 | 0.432 | 0.876 | 0.786 | 0.59 | 0.486 | 0.541 | 1.01 | 0.691 | 0.494 | 0.435 | 0.739 | 1.11 | 1.21 | 0.899
8 | SGSWSYNTSTE [SELE_Y24_A21S] | 0.5 | 0.393 | 0.503 | 0.968 | 0.925 | 0.56 | 0.527 | 0.586 | 1.07 | 0.768 | 0.536 | 0.503 | 0.787 | 0.565 | 0.826 | 0.55
9 | SGVSFYINLCQ [IGF2R_Y2025_N2020S_YF] | 0.361 | 0.529 | 0.522 | 1.61 | 1.5 | 0.806 | 0.787 | 0.695 | 1.46 | 1.19 | 0.481 | 0.686 | 1.04 | 1.32 | 2.21 | 1.48
10 | SHLSAYPALEG [CD5_Y465] | 0.375 | 0.409 | 0.343 | 0.483 | 0.611 | 0.351 | 0.404 | 0.398 | 0.591 | 0.411 | 0.372 | 0.324 | 0.531 | 0.687 | 0.897 | 0.618
11 | SHMVDYQPFRK [TEX37_Y25_YF] | 0.5 | 0.294 | 0.672 | 1.03 | 0.564 | 0.549 | 0.387 | 0.445 | 0.705 | 0.464 | 0.732 | 0.473 | 0.967 | 1.06 | 0.948 | 0.383
12 | SHSMRYFDTSV [HLA-C_Y31_A35S] | 0.432 | 0.37 | 0.432 | 0.543 | 0.581 | 0.482 | 0.47 | 0.448 | 0.576 | 0.463 | 0.393 | 0.386 | 0.455 | 0.885 | 0.932 | 0.367
13 | SHSMRYFSTAV [HLA-C_Y31_D33S] | 0.459 | 0.435 | 0.441 | 0.625 | 0.719 | 0.431 | 0.657 | 0.452 | 0.763 | 0.569 | 0.452 | 0.425 | 0.578 | 0.64 | 0.752 | 0.423
14 | SIIKDSFHRGA [GATM_Y203_Y203S] | 0.369 | 0.403 | 0.387 | 0.404 | 0.423 | 0.342 | 0.379 | 0.334 | 0.414 | 0.462 | 0.394 | 0.362 | 0.497 | 0.829 | 0.838 | 0.482
15 | SIKDKYVTAFY [KCNH2_Y611_L615F] | 0.428 | 0.401 | 0.383 | 0.523 | 0.578 | 0.488 | 0.483 | 0.439 | 0.67 | 0.475 | 0.414 | 0.358 | 0.391 | 0.525 | 0.607 | 0.461
16 | SILAVYSKDNY [PANK2_Y400] | 0.756 | 0.425 | 1.11 | 0.549 | 0.925 | 0.478 | 0.451 | 0.486 | 0.664 | 0.524 | 0.875 | 0.588 | 0.653 | 0.612 | 0.681 | 0.855
17 | SLEKSYELPDG [ACTA1_Y242] | 0.49 | 0.538 | 0.479 | 0.913 | 1.06 | 0.614 | 0.544 | 0.531 | 1.15 | 0.707 | 0.534 | 0.467 | 0.712 | 0.65 | 0.824 | 1.26
